Reference: PMC3834811

Target: AtWRKY50 DBD_K26Q (Arabidopsis thaliana, UniProt Q8VWQ5 =M+99-173, K123Q;internal_change)
Assay: DPI-ELISA

B1: W2 (dsDNA)
DNA 1: AAATTATTCAGCCATCAAAAGTTGACCAATAAT
DNA 2: ATTATTGGTCAACTTTTGATGGCTGAATAATTT
- binding result: binds
